Results on two molecules are retold here after US20170107569, “METHOD FOR ATTACHING ONE OR MORE POLYNUCLEOTIDE BINDING PROTEINS TO A TARGET POLYNUCLEOTIDE” (Oxford Nanopore Technologies Ltd., published 2017).

Data set [1] deals with T1, T4 Dda-E94C/C109A/C136A/A360C helicase (UniProt P32270 SEQ:1-439, E94C/C109A/C136A/A360C).
T1 sequence: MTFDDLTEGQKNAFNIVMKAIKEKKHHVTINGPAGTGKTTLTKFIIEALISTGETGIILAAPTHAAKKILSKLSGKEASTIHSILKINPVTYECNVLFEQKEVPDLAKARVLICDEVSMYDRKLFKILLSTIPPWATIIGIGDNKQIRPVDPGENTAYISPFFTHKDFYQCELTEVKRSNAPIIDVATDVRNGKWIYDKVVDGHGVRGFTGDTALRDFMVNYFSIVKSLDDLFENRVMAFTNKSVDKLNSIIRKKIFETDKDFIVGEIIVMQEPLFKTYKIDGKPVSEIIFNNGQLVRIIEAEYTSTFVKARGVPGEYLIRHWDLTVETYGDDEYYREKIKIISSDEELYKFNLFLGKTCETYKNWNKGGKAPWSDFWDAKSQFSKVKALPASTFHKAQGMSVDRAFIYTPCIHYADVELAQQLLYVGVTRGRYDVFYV
Put plainly: EMSA; native TBE PAGE; 50 mM HEPES, 100 mM KOAc pH 8, 1 mM EDTA, 100 uM TMAD; 2:1 and 1:1 complexes, single enzyme after KCl/ATP and SPRI. The settings on record: tags: closed with TMAD; Y-adapter, partly double-stranded. On the procedure: T4 Dda—E94C/C109A/C136A/A360C (3 μM, SEQ ID NO: 24 with mutations E94C/C109A/C136A/A360C) and DNA Y-adapter (500 nM, SEQ ID NO: 26 was hybridised to DNA strand X=30 iSpC3 spacers attached at the 3′ end to the 5′ end SEQ ID NO: 27 which is attached at the 3′ end to 4 iSp18 spacers which are attached at the opposite end to the 5′ end of SEQ ID NO: 28) were mixed in buffer (50 mM HEPES, 100 mM KOAc (pH 8) and EDTA (1 mM) and TMAD (100 μM) were added and incubated for 60 minutes at room temperature. The mixture was then diluted 1:1 in KCl/ATP solution (500 mM KCl, 1 mM ATP final) and incubated at ambient temperature for 25 mins, this mixture was known as sample 3.
The resultant enzyme bound to DNA was then analysed using a TBE PAGE gel as described previously in Example 1 except the gel was run for 45 mins.

The target of data set [2] is T1, T4 Dda-E94C/C109A/C136A/A360C helicase. The experiment in a line: EMSA; native TBE PAGE, band C. The settings on record: tags: closed with TMAD; Y-adapter, partly double-stranded. On the procedure:
Each sample run on the gel was 400 nM (5 μL). Lane 1 corresponded to a 100 bp ladder (the number of base pairs that the bands correspond to is shown along the side of the gel). Lane 2 corresponded to helicase leader complex shown in FIG. 12A, without the helicase bound. Lane 3 corresponded to the helicase leader complex shown in FIG. 12A with the helicase bound. Lane 4 corresponded to the polymerase strand complex shown in FIG. 12B without the polymerase bound. Lane 5 corresponded to the polymerase strand complex shown in FIG. 12B with the polymerase bound. Band A corresponded to SEQ ID NO: 43. Band B corresponded to DNA strand X=30 iSpC3 spacers attached at the 3′ end to the 5′ end SEQ ID NO: 27 which is attached at the 3′ end to 4 iSp18 spacers which are attached at the opposite end to the 5′ end of SEQ ID NO: 28. Band C corresponded to the helicase (T4 Dda—E94C/C109A/C136A/A360C) bound to DNA strand X. Band D corresponded to the polymerase strand complex without the enzyme bound (SEQ ID NO: 44 which was attached at its 3′ end to four iSpC3 spacers which were attached at the opposite end to the 5′ end of SEQ ID NO: 45). Band E corresponded to Phi29-A411C/Q560C bound to the polymerase strand complex.
The helicase-leader complex (diagram shown in FIG. 12 section A) was prepared as described in Example 2, except SEQ ID NO: 26 is replaced with SEQ ID NO: 43.
Background: A gel shift assay detects complexes by their altered migration in electrophoresis.

B1: DNA Y-adapter (Example 2) (mixed)
DNA 1: TTTTTTTTTTTTGGTTGTTTCTGTTGGTGCTGATATTGCGGCGTCTGCTTGGGTGTTTAACCT
DNA 2: GGTTAAACACCCAAGCAGACGCCGCAATATCAGCACCAACAGAAACAACCTTTGAGGCGAGCGGTCAA
modifications: 30 iSpC3 at 5' end of SEQ 27; 4 iSp18 between SEQ 27 and SEQ 28; 5' phosphate on SEQ 26
For B1, the binding result in data set [1] is reported as “binds”.

B2: helicase-leader Y-adapter (Example 7) (mixed)
DNA 1: TTTTTTTTTTTTGGTTGTTTCTGTTGGTGCTGATATTGCGGCGTCTGCTTGGGTGTTTAACCT
DNA 2: GCAATATCAGCACCAACAGAAACAACCTTTGAGGCGAGCGGTCAA
modifications: 30 iSpC3 at 5' end of SEQ 27; 4 iSp18 between SEQ 27 and SEQ 28
With B2, the binding result in data set [2] is on record as “binds”.
